Columns and labels:
Format in all cases: physicochemical
[1] = Storage stability of lyophilized HV1C3 at 50° C., liquid chromatography peak area (Experiment Example 1); details: glycine, mannitol
Experimental: Hirudin variant HV1C3 having the amino acid sequence shown by Sequence NO. 1 in the Sequence Table, glycine, and mannitol were dissolved in purified water to a final concentration of 6 mg/ml (0.86 mM), 6.7 mg/ml (89 mM), and 33.5 mg/ml (184 mM), respectively. The resulting solution was divided into six equal portions. These portions were adjusted to the pH shown in Table 1 with the addition of 30 mM of tartaric acid, phosphoric acid, or Tris buffer solution. The peptide solutions for which the pH was thus adjusted filtered through a 0.22 μm membrane filter. The filtrates were charged into 6 ml vials in the amount of 1 ml for each vial. 50 such vials were prepared for each pH of the solution, totaling 300 vials. All these 300 vials were lyophilized.
The lyophilized samples were stored in an incubator at 50° C. and removed from the incubator after 1, 2, 4, 6, 8 weeks, respectively. 1 ml of purified water was added to each vial removed. Solutions further diluted 50-fold were subjected to liquid chromatography to measure a peak area percentage of hirudin variant HV1C3 under the conditions shown in Table 2. The amount (percentage) of the hirudin variant HV1C3 remaining in the lyophilized sample, after having been stored in the incubator, compound with the amount of the hirudin variant HV1C3 contained at the beginning of the storage was determined.

[2] = Storage stability of lyophilized HV1C3 at 60° C., pH with tartaric acid (Experiment Example 3); details: saccharose, mannitol
Experimental: Hirudin variant HV1C3, purified saccharose, and mannitol were dissolved in purified water to a final concentration of 6 mg/ml (0.86 mM), 1.6 mg/ml (4.7 mM), and 10 mg/ml (55 mM), respectively. The resulting solution was divided into four equal portions. Three of these portions were adjusted to pHs 5.0, 5.5, and 6.0 using 30 mM tartaric acid. The peptide solutions for which the pH was thus adjusted and the peptide solution without pH adjustment were filtered through a 0.22 μm membrane filter. The filtrates were filled into 6 ml vials in the amount of 1 ml for each vial. 50 such vials were prepared for each pH of the solution, 200 vials in total. All these 200 vials were lyophilized.
The lyophilized samples were stored in an incubator at 60° C. and removed from the incubator after 1, 2, 3, 4, 5, 6, 7, and 8 weeks, respectively. 1 ml of purified water was added to each vial removed. Solutions further diluted 50-fold were used to measure the amount (percentage) of the hirudin variant HV1C3 remaining in the lyophilized sample in the same manner as in Experiment Example 1.

[3] = Amount of isomers in lyophilized HV1C3 stored at 60° C., saccharose/mannitol (Experiment Example 5); details: pH 5.5, 5 mM tartaric acid
Experimental: In the same manner as in Experiment Example 1, hirudin variant HV1C3, purified saccharose, and mannitol were dissolved in purified water to a concentration of 6 mg/ml (0.86 mM) of hirudin variant HV1C3 and concentrations of purified saccharose and mannitol respectively shown in Table 6. The solution was adjusted to pH 5.5 using 5 mM tartaric acid to obtain a peptide solution. The peptide solutions for which the pH was adjusted and the peptide solution before pH adjustment were filtered through a 0.22 μm membrane filter. The filtrates were filled into 6 ml vials in the amount of 1 ml for each vial and lyophilized.
The lyophilized samples were stored in an incubator at 60° C. and removed from the incubator after 4 and 8 weeks, respectively. […] was added to each vial removed. Solutions further diluted 50-fold were subjected to liquid chromatography to measure a peak area percentage of isomers other than the hirudin variant HV1C3.

[4] = no saccharose, mannitol 10 mg/ml
[5] = purified saccharose 1.6 mg/ml, mannitol 10 mg/ml
[6] = purified saccharose 1.6 mg/ml, no mannitol

B1: hirudin variant HV1C3: Hirudin variant having the amino acid sequence shown by Sequence No. 1 (JP Laid-open No. 173798/1992) (protein)
chain: VVYTDCTESGQNLCLCEGSNVCGQGNKCILGSDGEKNQCVTGEGTPKPQSHNQGDFEPIPEDAYDE
Remaining peptide (%) 1 wk ([1]; pH 4.5, tartaric acid 30 mM): 98.0% | Remaining peptide (%) 2 wks ([1]; pH 4.5, tartaric acid 30 mM): 97.7% | Remaining peptide (%) 4 wks ([1]; pH 4.5, tartaric acid 30 mM): 95.4% | Remaining peptide (%) 6 wks ([1]; pH 4.5, tartaric acid 30 mM): 94.7% | Remaining peptide (%) 8 wks ([1]; pH 4.5, tartaric acid 30 mM): 93.4% | Remaining peptide (%) 1 wk ([1]; pH 5.5, tartaric acid 30 mM): 98.6% | Remaining peptide (%) 2 wks ([1]; pH 5.5, tartaric acid 30 mM): 98.7% | Remaining peptide (%) 4 wks ([1]; pH 5.5, tartaric acid 30 mM): 97.5% | Remaining peptide (%) 6 wks ([1]; pH 5.5, tartaric acid 30 mM): 96.5% | Remaining peptide (%) 8 wks ([1]; pH 5.5, tartaric acid 30 mM): 97.0% | Remaining peptide (%) 1 wk ([1]; pH 6.0, phosphoric acid 30 mM): 98.4% | Remaining peptide (%) 2 wks ([1]; pH 6.0, phosphoric acid 30 mM): 96.4% | Remaining peptide (%) 4 wks ([1]; pH 6.0, phosphoric acid 30 mM): 95.1% | Remaining peptide (%) 6 wks ([1]; pH 6.0, phosphoric acid 30 mM): 94.5% | Remaining peptide (%) 8 wks ([1]; pH 6.0, phosphoric acid 30 mM): 93.6% | Remaining peptide (%) 1 wk ([1]; pH 7.0, Tris buffer 30 mM): 95.7% | Remaining peptide (%) 2 wks ([1]; pH 7.0, Tris buffer 30 mM): 92.0% | Remaining peptide (%) 4 wks ([1]; pH 7.0, Tris buffer 30 mM): 86.8% | Remaining peptide (%) 6 wks ([1]; pH 7.0, Tris buffer 30 mM): 72.0% | Remaining peptide (%) 8 wks ([1]; pH 7.0, Tris buffer 30 mM): 70.3% | Remaining peptide (%) 1 wk ([1]; pH 7.0, phosphoric acid 30 mM): 99.0% | Remaining peptide (%) 2 wks ([1]; pH 7.0, phosphoric acid 30 mM): 97.3% | Remaining peptide (%) 4 wks ([1]; pH 7.0, phosphoric acid 30 mM): 93.3% | Remaining peptide (%) 6 wks ([1]; pH 7.0, phosphoric acid 30 mM): 92.7% | Remaining peptide (%) 8 wks ([1]; pH 7.0, phosphoric acid 30 mM): 90.0% | Remaining peptide (%) 1 wk ([1]; pH 8.0, Tris buffer 30 mM): 81.9% | Remaining peptide (%) 2 wks ([1]; pH 8.0, Tris buffer 30 mM): 58.0% | Remaining peptide (%) 1 wk ([2]; pH 5.0, 30 mM tartaric acid): 97.6% | Remaining peptide (%) 2 wks ([2]; pH 5.0, 30 mM tartaric acid): 96.1% | Remaining peptide (%) 3 wks ([2]; pH 5.0, 30 mM tartaric acid): 93.2% | Remaining peptide (%) 4 wks ([2]; pH 5.0, 30 mM tartaric acid): 91.8% | Remaining peptide (%) 5 wks ([2]; pH 5.0, 30 mM tartaric acid): 91.7% | Remaining peptide (%) 6 wks ([2]; pH 5.0, 30 mM tartaric acid): 89.9% | Remaining peptide (%) 7 wks ([2]; pH 5.0, 30 mM tartaric acid): 69.1% | Remaining peptide (%) 8 wks ([2]; pH 5.0, 30 mM tartaric acid): 86.6% | Remaining peptide (%) 1 wk ([2]; pH 5.5, 30 mM tartaric acid): 98.4% | Remaining peptide (%) 2 wks ([2]; pH 5.5, 30 mM tartaric acid): 97.6% | Remaining peptide (%) 3 wks ([2]; pH 5.5, 30 mM tartaric acid): 95.9% | Remaining peptide (%) 4 wks ([2]; pH 5.5, 30 mM tartaric acid): 95.2% | Remaining peptide (%) 5 wks ([2]; pH 5.5, 30 mM tartaric acid): 92.4% | Remaining peptide (%) 6 wks ([2]; pH 5.5, 30 mM tartaric acid): 92.2% | Remaining peptide (%) 7 wks ([2]; pH 5.5, 30 mM tartaric acid): 91.9% | Remaining peptide (%) 8 wks ([2]; pH 5.5, 30 mM tartaric acid): 90.6% | Remaining peptide (%) 1 wk ([2]; pH 6.0, 30 mM tartaric acid): 98.4% | Remaining peptide (%) 2 wks ([2]; pH 6.0, 30 mM tartaric acid): 97.6% | Remaining peptide (%) 3 wks ([2]; pH 6.0, 30 mM tartaric acid): 96.6% | Remaining peptide (%) 4 wks ([2]; pH 6.0, 30 mM tartaric acid): 96.1% | Remaining peptide (%) 5 wks ([2]; pH 6.0, 30 mM tartaric acid): 94.6% | Remaining peptide (%) 6 wks ([2]; pH 6.0, 30 mM tartaric acid): 93.6% | Remaining peptide (%) 7 wks ([2]; pH 6.0, 30 mM tartaric acid): 91.8% | Remaining peptide (%) 8 wks ([2]; pH 6.0, 30 mM tartaric acid): 92.2% | Remaining peptide (%) 1 wk ([2]; without pH adjustment): 96.9% | Remaining peptide (%) 2 wks ([2]; without pH adjustment): 94.2% | Remaining peptide (%) 3 wks ([2]; without pH adjustment): 92.3% | Remaining peptide (%) 4 wks ([2]; without pH adjustment): 90.9% | Remaining peptide (%) 5 wks ([2]; without pH adjustment): 89.9% | Remaining peptide (%) 6 wks ([2]; without pH adjustment): 88.2% | Remaining peptide (%) 7 wks ([2]; without pH adjustment): 87.2% | Remaining peptide (%) 8 wks ([2]; without pH adjustment): 86.1% | The amount of isomers (%) 4 weeks [3, 4]: 6.93% | The amount of isomers (%) 8 weeks [3, 4]: 7.99% | The amount of isomers (%) 4 weeks ([3]; no saccharose, no mannitol): 5.72% | The amount of isomers (%) 8 weeks ([3]; no saccharose, no mannitol): 6.13% | The amount of isomers (%) 4 weeks [3, 5]: 7.23% | The amount of isomers (%) 8 weeks [3, 5]: 8.58% | The amount of isomers (%) 4 weeks [3, 6]: 4.90% | The amount of isomers (%) 8 weeks [3, 6]: 5.00%
